No end group written: not given here. *: point of attachment. FITC = O=C1OC2(c3ccc(O)cc3Oc3cc(O)ccc32)c2ccc(NC(=S)*)cc21

The record followed here is paper PMC12102759 (Protein Science : A Publication of the Protein Society, 2025).

Conditions in all cases: both partners purified
Experiment [1] deals with T1, talin‐1 PTB domain (309–401), tag cleaved, for FP (human, UniProt Q9Y490 309-401).
T1 construct: also called TLN1 PTB; source: E. coli BL21 (DE3), purified (Ni Sepharose, HRV 3C cleavage)
The experiment in a line: fluorescence polarisation; human domains; saturation with FITC-labelled probe peptide or displacement by unlabelled peptide; 50 mM KPO4 pH 7.5, DTT; triplicates; the text does not tell which of the two gave each KD. On the technique in general: In fluorescence polarisation assays a small probe gives low polarisation when free and higher when bound to something large.

Experiment [2] has as its target SARS-CoV-2 NSP3 ADRP domain (SARS-CoV-2, UniProt P0DTD1 1023-1192). In words: fluorescence polarisation.
In experiment [3] the target is talin-1 phosphotyrosine binding (TLN1 PTB) domain (human, UniProt Q9Y490 309-401). The experiment in a line: fluorescence polarisation; saturation (direct binding): human bait protein in serial dilution added to 10 nM-master-mix FITC-labeled probe peptide; 50 mM KPO4 pH 7.5, DTT; triplicates; fit to a quadratic equation.
The target in experiment [4] is SARS-CoV-2 NSP3 UBl1 domain (SARS-CoV-2, UniProt P0DTD1 819-925). The experiment in a line: fluorescence polarisation.
In experiment [5] the target is SARS-CoV-2 NSP3 SUD-M domain (SARS-CoV-2, UniProt P0DTD1 1356-1493). In words: fluorescence polarisation.
Experiment [6] has as its target T2, talin-1 phosphotyrosine binding (TLN1 PTB) domain (human, UniProt Q9Y490 309-401).
T2 construct: source: E. coli BL21 (DE3), purified (Ni Sepharose, tag cleaved with HRV 3C protease)
In words: fluorescence polarisation; displacement: unlabelled peptide in serial dilution added to FITC-labelled probe peptide with the protein at 4x the KD value; 50 mM KPO4 pH 7.5; triplicates; sigmoidal dose-response fit.

In experiment [7] the target is G3BP1 NTF2-like domain (1–139), tag cleaved, for FP (human, UniProt Q13283 1-139). In words: fluorescence polarisation.
G3BP1 NTF2-like domain (1–139), tag cleaved, for FP, sequence (Q13283 1-139): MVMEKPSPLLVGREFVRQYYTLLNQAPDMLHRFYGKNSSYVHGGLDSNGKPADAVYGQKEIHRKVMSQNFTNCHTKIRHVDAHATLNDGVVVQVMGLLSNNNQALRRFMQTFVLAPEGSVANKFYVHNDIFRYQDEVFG
Experiment [8] has as its target SARS-CoV-2 non-structural protein 9 (NSP9) (SARS-CoV-2, UniProt P0DTD1 4141-4253). In words: fluorescence polarisation.

T1 sequence (Q9Y490 309-401): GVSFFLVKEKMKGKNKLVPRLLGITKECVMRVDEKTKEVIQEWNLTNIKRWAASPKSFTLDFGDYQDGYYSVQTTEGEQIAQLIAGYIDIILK

B1: wild‐type TPTE2_(92‐107) peptide (peptide)
peptide: LADLIFTDSKLYIPLE
notes: source: synthetic peptide (GeneCust)
B1: the affinity in experiment [1], expressed as Kd, was 4.5 µM.

B2: TPTE2_(92‐107) F97W peptide (peptide)
peptide: LADLIWTDSKLYIPLE
notes: as for B1
As for B2, the Kd – broadly, the free concentration of one partner at which half of the binding sites on the other are occupied at equilibrium, for simple one-to-one binding – in experiment [1] is 0.1 µM.

B3: TPTE2_(92‐107) F97Y peptide (peptide)
peptide: LADLIYTDSKLYIPLE
notes: as for B1
B3 had a Kd in experiment [1] of 150 µM. This Kd lies about 1500-fold higher than the previous one.

B4: TPTE2 Y103W peptide (peptide)
peptide: LADLIFTDSKLWIPLE
notes: as for B1
B4: binding in experiment [1] was characterised by a dissociation constant (Kd) of 22 µM.

B5: TPTE2 I104A peptide (peptide)
peptide: LADLIFTDSKLYAPLE
notes: as for B1
Consider B5, for which the Kd in experiment [1] is 18 µM.

B6: TPTE2_(92‐107) S100N peptide (peptide)
peptide: LADLIFTDNKLYIPLE
notes: as for B1
Turning to B6, the Kd in experiment [1] was 1.7 µM.

B7: TPTE2 I104L peptide (peptide)
peptide: LADLIFTDSKLYLPLE
notes: as for B1
Consider B7, for which the binding result in experiment [1] is given as “binds”.

B8: MBOAT1 wt peptide 17-32 (peptide)
peptide: STYLHPLSELLGIPLD
On to B8, for which the IC50 (as a rule, the concentration that inhibits the measured activity by half) in experiment [2] was found to be 175 µM.

B9: FITC-labeled PIP5K1C probe peptide FITC-FPTDERSWVYSPLHYS (peptide)
peptide: {FITC}-FPTDERSWVYSPLHYS
notes: as for B1
Consider B9, for which, in experiment [3], the Kd is 0.065 µM.

B10: FITC-labelled NCOA2 peptide 1074-1089 (peptide)
peptide: SDEGALLDQLYLALRN
modifications: FITC on the N-terminus
In turn, B10 returned a Kd in experiment [4] of 67 µM.

B11: FITC-labelled PRDM14 peptide 197-212 (peptide)
peptide: FTEEDLHFVLYGVTPS
modifications: FITC on the N-terminus
B11: in experiment [5], the Kd stood at 19 µM.

B12: TPTE2 wt peptide 92-107 (peptide)
peptide: Ac-LADLIFTDSKLYIPLE-NH2
B12 had a half-inhibitory concentration (IC50) in experiment [6] of 15 µM. In other words, the double-digit micromolar range.

B13: TPTE2_F97Y peptide 92-107 (peptide)
peptide: Ac-LADLIYTDSKLYIPLE-NH2
For B13, the IC50 in experiment [6] worked out at 440 µM. Against the preceding molecule, the IC50 is about 29-fold higher.

B14: TPTE2_F97W peptide 92-107 (peptide)
peptide: Ac-LADLIWTDSKLYIPLE-NH2
Molecule B14 had an IC50 in experiment [6] of 0.4 µM.

B15: TPTE2_I104A peptide 92-107 (peptide)
peptide: Ac-LADLIFTDSKLYAPLE-NH2
In turn, B15 had an IC50 in experiment [6] of 55 µM.

B16: TPTE2_S100N peptide 92-107 (peptide)
peptide: Ac-LADLIFTDNKLYIPLE-NH2
B16 displayed an IC50 in experiment [6] of 5.2 µM.

B17: TPTE2_K101A peptide 92-107 (peptide)
peptide: Ac-LADLIFTDSALYIPLE-NH2
As to B17, in experiment [6], the IC50 was determined as 45 µM and the Kd is 15 µM.

B18: TPTE2_Y103W peptide 92-107 (peptide)
peptide: Ac-LADLIFTDSKLWIPLE-NH2
Consider B18, for which the IC50 in experiment [6] is 66 µM.

B19: TPTE2_I104L peptide 92-107 (peptide)
peptide: Ac-LADLIFTDSKLYLPLE-NH2
For the molecule B19, in experiment [6], the IC50 came to 14 µM and the Kd was 4.5 µM.

B20: wildtype SARS‐CoV‐2 N_(12–26) peptide (peptide)
peptide: APRITFGGPSDSTGS
As to B20, the Kd in experiment [7] came out at 2.3 µM.

B21: FITC-labelled MBOAT1 peptide 16-31 (peptide)
peptide: GSTYLHPLSELLGIPL
modifications: FITC on the N-terminus
Turning to B21, binding in experiment [2] was put at a Kd of 50.8 µM. This counts as double-digit micromolar.

B22: NOTCH4 wt peptide 1606-1621 (peptide)
peptide: QGAWLGAPEPWEPLLD
B22 displayed an IC50 in experiment [8] of 205 µM.

B23: PRDM14 wt peptide 196-211 (peptide)
peptide: QFTEEDLHFVLYGVTPY
Consider B23, for which the IC50 in experiment [5] came to 400 µM.

B24: NCOA2 wt peptide 1073-1088 (peptide)
peptide: PSDEGALLDQLYLALR
Turning to B24, the IC50 in experiment [4] was determined as 139 µM.

B25: FITC-labelled NKRF peptide 8-23 (peptide)
peptide: AEGIDIGEMPSYDLVL
modifications: FITC on the N-terminus
notes: NKRF residues 8-23
The molecule B25 displayed a Kd in experiment [8] of 15.5 µM. This lies in the double-digit micromolar range.
